Reference: article PMC4352895, “Jarid2 Methylation via the PRC2 Complex Regulates H3K27me3 Deposition during Cell Differentiation” (Molecular Cell, 2015)
pKd: −log10 of the molar value.

Molecular target: ΔEed (Eed residues 77 to 441) (UniProt O75530)
Assay: ITC; ΔEed (residues 77 to 441) with methylated peptides; conditions in the Supplemental Experimental Procedures

Sequence of ΔEed (Eed residues 77 to 441) (O75530 77-441, stated change not applied): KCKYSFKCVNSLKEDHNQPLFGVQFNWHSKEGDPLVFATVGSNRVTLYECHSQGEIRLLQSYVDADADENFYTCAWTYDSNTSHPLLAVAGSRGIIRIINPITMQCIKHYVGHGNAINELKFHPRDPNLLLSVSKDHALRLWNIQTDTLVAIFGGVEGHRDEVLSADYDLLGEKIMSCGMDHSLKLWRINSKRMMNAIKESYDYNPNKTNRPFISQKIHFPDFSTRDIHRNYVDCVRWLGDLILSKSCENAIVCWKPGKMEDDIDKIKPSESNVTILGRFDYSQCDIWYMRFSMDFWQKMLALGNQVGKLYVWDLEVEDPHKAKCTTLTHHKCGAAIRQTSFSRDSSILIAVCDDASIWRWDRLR

Which results are given for Jarid2-K116me3 peptide?
pKd: 5.52; fold affinity against the H3K27me3 peptide: 10 fold
